Results reported in patent US20040110663A1.

Molecular target: Sonic hedgehog (Shh), human, as secreted by human cancer cell lines in co-culture (human)
Experiment: cell-based or functional assay

Question: With Shh blocking antibody 5E1 as the substance, how does the inhibition of luciferase expression in S12 cells (gli-Luc assay, S12/RT-4 co-cultures) read?
Answer: Its inhibition of luciferase expression in S12 cells (gli-Luc assay, S12/RT-4 co-cultures) is 85 ng/mL.

Question: And the inhibition of luciferase expression in S12 cells (gli-Luc assay, S12/RT-4 co-cultures), IC90?
Answer: The inhibition of luciferase expression in S12 cells (gli-Luc assay, S12/RT-4 co-cultures), IC90 was 0.5 µg/mL.
